Laboratory results as given in publication doi:10.1101/2021.06.14.448427 (bioRxiv, 2021).

How the values were obtained:
[1] = target: T1, NTF of c-CDCP1 Cut 3 ectodomain (ending after K369) (human, UniProt Q9H5V8 30-369); assay: co-purification after co-transfection
T1 sequence (looked up): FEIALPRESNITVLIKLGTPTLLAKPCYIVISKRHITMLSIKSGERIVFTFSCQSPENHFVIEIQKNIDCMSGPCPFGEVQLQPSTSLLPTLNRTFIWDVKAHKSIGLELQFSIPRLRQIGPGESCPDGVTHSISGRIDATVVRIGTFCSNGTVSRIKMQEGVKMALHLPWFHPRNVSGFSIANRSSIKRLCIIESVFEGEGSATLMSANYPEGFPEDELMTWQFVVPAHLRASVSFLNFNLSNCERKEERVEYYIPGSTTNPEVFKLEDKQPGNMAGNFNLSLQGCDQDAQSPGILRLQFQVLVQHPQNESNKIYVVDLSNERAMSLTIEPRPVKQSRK

[2] = target: T2, NTF of c-CDCP1 Cut 1 ectodomain (ending after K365) (human, UniProt Q9H5V8 30-365); assay: SEC
T2 sequence (looked up): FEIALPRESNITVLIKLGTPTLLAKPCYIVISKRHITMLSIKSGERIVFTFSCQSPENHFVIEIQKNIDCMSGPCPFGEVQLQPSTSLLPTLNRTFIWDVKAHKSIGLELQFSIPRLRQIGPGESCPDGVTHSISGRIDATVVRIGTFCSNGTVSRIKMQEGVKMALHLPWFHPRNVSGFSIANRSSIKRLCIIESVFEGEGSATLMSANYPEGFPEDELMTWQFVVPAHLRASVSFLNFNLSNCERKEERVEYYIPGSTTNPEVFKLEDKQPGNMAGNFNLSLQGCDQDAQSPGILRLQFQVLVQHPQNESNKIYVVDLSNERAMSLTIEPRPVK

[3] = target: T3, NTF of c-CDCP1 Cut 2 ectodomain (ending after R368) (human, UniProt Q9H5V8 30-368); assay: SEC
T3 sequence (looked up): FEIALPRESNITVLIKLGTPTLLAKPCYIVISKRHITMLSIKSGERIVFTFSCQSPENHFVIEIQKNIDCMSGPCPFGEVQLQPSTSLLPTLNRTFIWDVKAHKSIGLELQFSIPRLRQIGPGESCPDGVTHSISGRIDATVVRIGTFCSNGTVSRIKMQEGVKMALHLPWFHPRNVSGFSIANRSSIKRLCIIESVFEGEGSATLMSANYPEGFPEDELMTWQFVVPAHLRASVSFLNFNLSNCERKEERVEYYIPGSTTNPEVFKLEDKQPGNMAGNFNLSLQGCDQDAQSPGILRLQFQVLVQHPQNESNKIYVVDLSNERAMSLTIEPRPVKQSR

B1: CTF ectodomain of c-CDCP1 Cut 3 (starting after K369) (domain or fragment, human, UniProt Q9H5V8 370-665, looked up)
chain: FVPGCFVCLESRTCSSNLTLTSGSKHKISFLCDDLTRLWMNVEKTISCTDHRYCQRKSYSLQVPSDILHLPVELHDFSWKLLVPKDRLSLVLVPAQKLQQHTHEKPCNTSFSYLVASAIPSQDLYFGSFCPGGSIKQIQVKQNISVTLRTFAPSFQQEASRQGLTVSFIPYFKEEGVFTVTPDTKSKVYLRTPNWDRGLPSLTSVSWNISVPRDQVACLTFFKERSGVVCQTGRAFMIIQEQRTRAEEIFSLDEDVLPKPSFHHHSFWVNISNCSPTSGKQLDLLFSVTLTPRTVD
B1: binds [1].

B2: CTF ectodomain of c-CDCP1 Cut 1 (starting after K365) (domain or fragment, human, UniProt Q9H5V8 366-665, looked up)
chain: QSRKFVPGCFVCLESRTCSSNLTLTSGSKHKISFLCDDLTRLWMNVEKTISCTDHRYCQRKSYSLQVPSDILHLPVELHDFSWKLLVPKDRLSLVLVPAQKLQQHTHEKPCNTSFSYLVASAIPSQDLYFGSFCPGGSIKQIQVKQNISVTLRTFAPSFQQEASRQGLTVSFIPYFKEEGVFTVTPDTKSKVYLRTPNWDRGLPSLTSVSWNISVPRDQVACLTFFKERSGVVCQTGRAFMIIQEQRTRAEEIFSLDEDVLPKPSFHHHSFWVNISNCSPTSGKQLDLLFSVTLTPRTVD
B2: binds [2].

B3: CTF ectodomain of c-CDCP1 Cut 2 (starting after R368) (domain or fragment, human, UniProt Q9H5V8 369-665, looked up)
chain: KFVPGCFVCLESRTCSSNLTLTSGSKHKISFLCDDLTRLWMNVEKTISCTDHRYCQRKSYSLQVPSDILHLPVELHDFSWKLLVPKDRLSLVLVPAQKLQQHTHEKPCNTSFSYLVASAIPSQDLYFGSFCPGGSIKQIQVKQNISVTLRTFAPSFQQEASRQGLTVSFIPYFKEEGVFTVTPDTKSKVYLRTPNWDRGLPSLTSVSWNISVPRDQVACLTFFKERSGVVCQTGRAFMIIQEQRTRAEEIFSLDEDVLPKPSFHHHSFWVNISNCSPTSGKQLDLLFSVTLTPRTVD
B3: binds [3].
